This test has as its target p53 (UniProt P04637). The test is described as follows: anti-Flag IP, anti-HA blot. The following applies: reference: HA-STAT1 wild type; sites Y701.

As for “STAT1 (from UniProt P42224) HA-STAT1-Y701F”, the “binding against the reference” value is “weaker”.
